This is an account of results in article doi:10.1101/2020.07.15.204800 (bioRxiv, 2020).

The assay addresses T1, PQLC2-FLAG wild type (human, UniProt Q6ZP29 1-291).
T1 sequence: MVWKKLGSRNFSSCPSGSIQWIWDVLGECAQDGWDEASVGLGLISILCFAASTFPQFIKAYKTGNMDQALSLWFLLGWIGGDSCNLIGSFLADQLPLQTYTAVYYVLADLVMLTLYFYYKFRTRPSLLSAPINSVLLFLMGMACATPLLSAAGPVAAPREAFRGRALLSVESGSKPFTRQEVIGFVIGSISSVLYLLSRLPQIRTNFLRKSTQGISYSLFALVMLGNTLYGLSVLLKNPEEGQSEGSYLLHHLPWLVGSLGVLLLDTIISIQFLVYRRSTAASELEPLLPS
Kind of assay: pull-down.

In the case of TGFFNMWGFG [GST-WDR41-PIP (GST fused to the 10 amino acid PIP sequence)], the binding result was “binds”.
